# Experiments:
# [1] = molecular target: human PD-1 expressed on cells (human) (UniProt Q15116); assay: flow cytometry, CHO-S hPD-1
# [2] = molecular target: recombinant hPD-1 (construct not stated) (human) (UniProt Q15116); assay: ELISA
# [3] = molecular target: recombinant cynoPD-1 (construct not stated) (cynomolgus monkey) (UniProt B0LAJ3); assay: ELISA
# [4] = molecular target: cynomolgus PD-1 expressed on cells (cynomolgus monkey) (UniProt B0LAJ3); assay: flow cytometry, CHO-S Cyno-PD-1
# Chain of cynomolgus PD-1 expressed on cells (cynomolgus monkey) (B0LAJ3 entry or part of it limits assumed): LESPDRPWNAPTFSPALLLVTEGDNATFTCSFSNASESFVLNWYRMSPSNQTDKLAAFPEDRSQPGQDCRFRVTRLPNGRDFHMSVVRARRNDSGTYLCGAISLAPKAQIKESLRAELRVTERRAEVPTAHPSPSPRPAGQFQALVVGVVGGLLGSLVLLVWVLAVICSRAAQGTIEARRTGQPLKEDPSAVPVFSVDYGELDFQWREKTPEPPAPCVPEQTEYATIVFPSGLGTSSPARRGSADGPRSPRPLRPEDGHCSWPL
# Chain of recombinant cynoPD-1 (construct not stated) (cynomolgus monkey) (B0LAJ3 entry or part of it limits assumed): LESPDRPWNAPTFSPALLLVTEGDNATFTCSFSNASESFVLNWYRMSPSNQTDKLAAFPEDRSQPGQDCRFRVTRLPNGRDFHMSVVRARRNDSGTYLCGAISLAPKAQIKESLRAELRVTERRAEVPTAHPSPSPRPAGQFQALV
# Chain of human PD-1 expressed on cells (human) (Q15116 25-288): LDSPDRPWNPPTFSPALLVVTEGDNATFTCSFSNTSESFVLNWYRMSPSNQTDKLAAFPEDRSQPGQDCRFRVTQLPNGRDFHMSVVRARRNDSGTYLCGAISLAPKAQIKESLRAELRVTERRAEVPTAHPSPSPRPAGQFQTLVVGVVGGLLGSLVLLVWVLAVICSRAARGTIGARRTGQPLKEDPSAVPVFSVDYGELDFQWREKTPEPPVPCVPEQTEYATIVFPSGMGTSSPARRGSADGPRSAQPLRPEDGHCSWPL
# Chain of recombinant hPD-1 (construct not stated) (human) (Q15116 25-167 limits assumed): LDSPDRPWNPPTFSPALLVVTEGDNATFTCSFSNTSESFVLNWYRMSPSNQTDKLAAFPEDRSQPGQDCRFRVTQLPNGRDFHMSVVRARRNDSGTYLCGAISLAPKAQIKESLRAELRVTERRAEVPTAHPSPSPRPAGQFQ
substance,measurement,setting,value
NC.hIgG1 (antibody),Max MFI,[1],184 MFI
same,Max OD,[2],0.05 OD
same,Max OD,[3],0.07 OD
same,Max MFI,[4],206 MFI

# Source: US20260207767A1
